Measured values from publication PMC8866119 (Nature, 2021).
Residue numbers refer to the chain shown, from its start.

B1: DH1047 (antibody, V domains shown)
VH: QVQLVQSGAEVKKPGASVQVSCQASANTFTNHYIHWVRQAPGQGLEWMGIIYPTGGNTIYAQGFQGRVTMTRDTSLNTIYLELSSLRSEDTAVYYCARDVRVDDSWSGYDLLSGGTYFDYWGQGTLVTVSS
VL: not shown
B2: BD55-3304 (antibody, V domains shown)
VH: QVQLVESGGGVVQPERSLRLSCAASGFIFSNYGMHWVRQAPGKGLEWVALIWYDGSNRYYADSVKGRFTISRDNSRNTLYLQMNSLRAEDTAMYYCAKSALRGYSGYDFFSRVSDEYYFDNWGQGTLVTVSS
VL: DIVMTQSPDSLAVSLGERATISCKSSQSVLYSSNNQNYLAWYQQKPGQPPKLLIKWASTRESGVPDRFSGSGSGTDFTLTITSLQAEDVAVYYCQQYFDTPHFGQGTKLEIK
B3: COVA1-16 (antibody, V domains shown)
VH: QVQLVQSGAEVKKPGASVKVSCKASGYTFTSYYMHWVRQAPGQGLEWMGIINSSGGSTSYAQKFQGRVTMTRDTSTSTVYMELSSLRSEDTAVYYCARPPRNYYDRSGYYQRAEYFQHWGQGTLVTVSS
VL: DIQLTQSPSSLSASVGDRVTITCQASQDISNYLNWYQQRPGKAPKLLIYDASNLETGVPSRFSGSGSGTDFTFTISSLQPEDIATYYCQQYDNPPLTFGGGTKLEIK
B4: COV2-2828 (antibody, V domains shown)
VH: EVQLVESGGGLVKPGGSLRLSCAASGFTFRDYSMNWVRQAPGKGLEWVSSISSGGSYIYYADSVKGRFTISRDNAKNSLYLQMNSLRAEDTAVYYCARGGSILWWLIDYWGQGTLVTVSS
VL: NFMLTQPHSVSESPGKTVTISCTGSSGSIASNYVQWYQQRPGSAPTTVIYEDNQRPSGVPDRFSGSIDSSSNSASLTISGLKTEDEADYYCQSYDSTSRVVFGGGTKLTVL
B5: DH1045 (antibody, V domains shown)
VH: QLQLQESGPGLVKPSETLSLTCTVSGGSISSSGYYWGWIRQPPGKGLEWIGTIYYGGSTYYSPSLKSRVTISVDTSKNQFSLKLSSVTAADTAVYYCASQQWLRGNFDYWGQGTLVTVSS
VL: B4 VL with T97S, S98T, R99Y, V100W
B6: BD-801 (antibody, V domains shown)
VH: DVQLVESGGGLVQPGGSRRLSCAASGFMFSSYWMNWVRQAPGKGLEWVASIKEDGSEKYYVDSVKGRFTISRDNAKNSLFLQMNSLRAEDTAVYYCARKCRGYYDRSGYYYKCAFDIWGQGTMVTVSS
VL: PYVLTQPPSVSVAPGKTARITCGGNNLGTNSVHWYQQKPGQAPVLVMYYDSDRPSGIPERFSGSNSGNTATLTISRVDAGDEADYYCQVWDSSSDHWVFGGGTKLTVL
B7: BD55-5267 (antibody, V domains shown)
VH: QVQLQESGPGLVKPSGTLSLTCAVSGGSISSSNWWSWVRQPPGKGLEWIGEIYHSGSTNYNPSLKSRVTISVDKSKNKFSLKLSSVTAADTAVYFCARAGWIESGYDAFVGYFDYWGQGTLVTVSS
VL: DIQMTQSPSSLSASVGDRVTITCRASQGISSSLAWYQQKPGKAPDLLLYAASGLESGVPSRFSGSGSGTDFTLSISSLQPEDFATYYCQQYYSPPRTFGQGTKLEIK
B8: BD55-5259 (antibody, V domains shown)
VH: QITLKESGPTLVKPTQTLTLTCTFSGFSLTMPEVGVAWVRQPPGKALEWLALIYGDDNKRYSPSLESRLTITKDSSKNQVVLTMTNLDSVDTATYYCARRKFLWDSDPVAFDYWGLGTLVIVSS
VL: DIVMTQTPLSLPVTLGQPASISCRSSQSLVHIDGNIYLSWLQQRPGQPPRLLIYKISNRFSGVPDRFSGSGSGTDFTLKISRVEAEDVGVYYCMQATQFPHEMYTFGQGTKLEIR
B9: BD55-5226 (antibody, V domains shown)
VH: EVQLVESGGGLVKPGGSLRLSCAASGFTFSSYSMNWVRQAPGKGLEWVSSISMTSSYRHYADSVRGRFTISRDNANNSLFLQMNSLRAEDTAVYFCARDSNLRTGDANDYWGQGTLVTVSS
VL: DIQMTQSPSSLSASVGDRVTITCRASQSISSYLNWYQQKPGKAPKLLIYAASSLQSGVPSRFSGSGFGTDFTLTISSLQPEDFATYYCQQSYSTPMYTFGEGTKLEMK
B10: BD55-1237 (antibody, V domains shown)
VH: QVQLVESGGGVVQPGRSLRLSCATSDFTSNTYGIHWVRQAPGKGLEWVAVIWSDGSHEYYADSVKGRFTISRDNSKNTVYLQMASLRPEDTALYYCAKSPWLRGSFDVWGQGTVVPVSS
VL: NFLLTQPHSVSESPGKTVTISCSGSSGYIASNYVQWYQQRPGSAPIVVMYEDNQRPSGVPDRFSGSIDSSSNSASLTISGLKTEDEADYYCQSYDSDNRAWVFGGGTKLTVL
B11: BD-708 (antibody, V domains shown)
VH: QVQLVESGGGVVQPGRSLRLSCAASGFTLSNYAMHWVRQAPGTGLEWVAVISDDGSIKFYADSVKGRFTISRDNSKNTLYLQMNSLRAEDTAVYYCARDGDDSSGYFFDYWGQGTLVTVSS
VL: DIQMTQSPSSLSASVGDRVTITCRASQGINNFLAWYQQKPGKAPKLLLYSASRLESGVPSRFSGSGSGTDYTLTISSLQPEDFATYYCQQYYSTLALTFGGGTKVEIK

Molecular target: SARS-CoV-2 Omicron (B.1.1.529) RBD (SARS-CoV-2 Omicron B.1.1.529 (BA.1), strain)

Binder | binding result
B1 | binds
B2 | binds
B3 | binds
B4 | binds
B5 | binds
B6 | binds
B7 | binds
B8 | binds
B9 | binds
B10 | binds
B11 | binds
